Laboratory results published in article PMC5014452.

Key:
Experiment in all cases: EMSA
[1] = biological target: recombinant human integrin α6β4 (Homo sapiens, UniProt P23229;P16144 24-1050;28-710)
[2] = biological target: recombinant human integrin α6β1 (Homo sapiens, UniProt P23229;P05556 24-1050;21-728)
[3] = biological target: recombinant murine integrin α6β4 (Mus musculus, UniProt Q61739;A2A863 24-1011;29-712)

Measured: binding result

Chain of recombinant human integrin α6β4 (P23229 24-1050, chain 1 of 2): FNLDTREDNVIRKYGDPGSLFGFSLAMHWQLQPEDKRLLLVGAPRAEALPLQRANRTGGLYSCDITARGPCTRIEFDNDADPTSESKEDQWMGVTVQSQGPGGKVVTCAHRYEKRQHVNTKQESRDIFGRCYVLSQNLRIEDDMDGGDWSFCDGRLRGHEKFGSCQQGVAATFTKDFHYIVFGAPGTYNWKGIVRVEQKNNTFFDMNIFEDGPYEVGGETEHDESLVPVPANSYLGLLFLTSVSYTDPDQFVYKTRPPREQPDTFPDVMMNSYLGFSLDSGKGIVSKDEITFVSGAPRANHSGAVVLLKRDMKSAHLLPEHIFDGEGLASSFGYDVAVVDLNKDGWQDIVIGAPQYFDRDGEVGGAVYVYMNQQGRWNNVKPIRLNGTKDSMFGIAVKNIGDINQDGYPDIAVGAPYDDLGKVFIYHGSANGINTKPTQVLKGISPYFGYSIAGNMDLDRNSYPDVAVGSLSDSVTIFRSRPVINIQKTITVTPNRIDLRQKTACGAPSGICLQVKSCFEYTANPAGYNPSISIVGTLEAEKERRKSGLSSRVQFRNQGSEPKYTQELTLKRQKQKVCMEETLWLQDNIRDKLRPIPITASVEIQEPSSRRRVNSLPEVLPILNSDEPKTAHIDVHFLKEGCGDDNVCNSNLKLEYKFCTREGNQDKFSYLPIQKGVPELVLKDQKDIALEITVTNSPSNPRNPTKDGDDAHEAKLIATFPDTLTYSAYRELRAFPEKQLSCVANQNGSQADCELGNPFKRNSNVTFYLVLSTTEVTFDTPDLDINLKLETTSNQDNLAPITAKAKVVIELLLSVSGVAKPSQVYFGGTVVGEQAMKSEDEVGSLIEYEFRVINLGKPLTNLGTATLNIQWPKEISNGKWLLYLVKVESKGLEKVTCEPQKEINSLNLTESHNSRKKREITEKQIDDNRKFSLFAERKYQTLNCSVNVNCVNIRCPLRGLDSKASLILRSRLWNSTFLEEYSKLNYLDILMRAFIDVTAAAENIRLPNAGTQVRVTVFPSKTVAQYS
Chain of recombinant human integrin α6β4 (P16144 28-710, chain 2 of 2): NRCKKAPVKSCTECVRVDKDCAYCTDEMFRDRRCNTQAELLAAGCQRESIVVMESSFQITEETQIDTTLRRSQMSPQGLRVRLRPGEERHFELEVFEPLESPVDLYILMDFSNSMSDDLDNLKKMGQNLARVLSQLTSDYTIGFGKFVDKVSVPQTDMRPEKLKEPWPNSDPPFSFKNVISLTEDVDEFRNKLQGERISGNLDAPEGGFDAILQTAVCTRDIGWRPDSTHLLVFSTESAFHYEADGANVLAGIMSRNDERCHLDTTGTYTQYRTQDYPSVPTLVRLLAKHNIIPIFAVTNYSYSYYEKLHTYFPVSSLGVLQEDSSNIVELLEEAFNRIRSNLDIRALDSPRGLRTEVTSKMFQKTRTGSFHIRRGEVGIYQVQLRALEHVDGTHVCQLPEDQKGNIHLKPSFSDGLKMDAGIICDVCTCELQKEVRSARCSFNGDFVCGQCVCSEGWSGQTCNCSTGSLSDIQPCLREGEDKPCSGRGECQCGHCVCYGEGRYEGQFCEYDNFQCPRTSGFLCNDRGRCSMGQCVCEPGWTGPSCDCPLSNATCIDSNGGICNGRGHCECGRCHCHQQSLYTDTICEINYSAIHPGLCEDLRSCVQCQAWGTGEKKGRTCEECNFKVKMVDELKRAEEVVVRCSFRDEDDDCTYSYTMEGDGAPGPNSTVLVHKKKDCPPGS
Chain of recombinant human integrin α6β1 (P23229 24-1050, chain 1 of 2): as the sequence (P23229 24-1050, chain 1 of 2) above
Chain of recombinant human integrin α6β1 (P05556 21-728, chain 2 of 2): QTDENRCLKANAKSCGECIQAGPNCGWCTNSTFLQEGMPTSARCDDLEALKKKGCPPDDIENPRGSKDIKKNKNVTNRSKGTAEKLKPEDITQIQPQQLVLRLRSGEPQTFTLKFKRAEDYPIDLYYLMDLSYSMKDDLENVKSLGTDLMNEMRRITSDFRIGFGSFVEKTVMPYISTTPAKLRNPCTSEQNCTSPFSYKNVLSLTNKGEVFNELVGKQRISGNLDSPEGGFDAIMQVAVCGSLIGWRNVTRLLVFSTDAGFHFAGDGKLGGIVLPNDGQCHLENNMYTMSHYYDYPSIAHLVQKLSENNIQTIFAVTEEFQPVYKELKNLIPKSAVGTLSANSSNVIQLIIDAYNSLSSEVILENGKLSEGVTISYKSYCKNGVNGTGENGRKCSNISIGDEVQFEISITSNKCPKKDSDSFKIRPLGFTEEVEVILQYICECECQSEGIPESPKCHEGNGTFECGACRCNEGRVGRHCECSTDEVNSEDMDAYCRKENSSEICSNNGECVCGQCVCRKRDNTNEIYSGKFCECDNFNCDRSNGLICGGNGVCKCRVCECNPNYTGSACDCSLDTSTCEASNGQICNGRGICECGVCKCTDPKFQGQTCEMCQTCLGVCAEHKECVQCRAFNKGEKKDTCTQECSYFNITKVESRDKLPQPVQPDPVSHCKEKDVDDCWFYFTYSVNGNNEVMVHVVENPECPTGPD
Chain of recombinant murine integrin α6β4 (Q61739 24-1011, chain 1 of 2): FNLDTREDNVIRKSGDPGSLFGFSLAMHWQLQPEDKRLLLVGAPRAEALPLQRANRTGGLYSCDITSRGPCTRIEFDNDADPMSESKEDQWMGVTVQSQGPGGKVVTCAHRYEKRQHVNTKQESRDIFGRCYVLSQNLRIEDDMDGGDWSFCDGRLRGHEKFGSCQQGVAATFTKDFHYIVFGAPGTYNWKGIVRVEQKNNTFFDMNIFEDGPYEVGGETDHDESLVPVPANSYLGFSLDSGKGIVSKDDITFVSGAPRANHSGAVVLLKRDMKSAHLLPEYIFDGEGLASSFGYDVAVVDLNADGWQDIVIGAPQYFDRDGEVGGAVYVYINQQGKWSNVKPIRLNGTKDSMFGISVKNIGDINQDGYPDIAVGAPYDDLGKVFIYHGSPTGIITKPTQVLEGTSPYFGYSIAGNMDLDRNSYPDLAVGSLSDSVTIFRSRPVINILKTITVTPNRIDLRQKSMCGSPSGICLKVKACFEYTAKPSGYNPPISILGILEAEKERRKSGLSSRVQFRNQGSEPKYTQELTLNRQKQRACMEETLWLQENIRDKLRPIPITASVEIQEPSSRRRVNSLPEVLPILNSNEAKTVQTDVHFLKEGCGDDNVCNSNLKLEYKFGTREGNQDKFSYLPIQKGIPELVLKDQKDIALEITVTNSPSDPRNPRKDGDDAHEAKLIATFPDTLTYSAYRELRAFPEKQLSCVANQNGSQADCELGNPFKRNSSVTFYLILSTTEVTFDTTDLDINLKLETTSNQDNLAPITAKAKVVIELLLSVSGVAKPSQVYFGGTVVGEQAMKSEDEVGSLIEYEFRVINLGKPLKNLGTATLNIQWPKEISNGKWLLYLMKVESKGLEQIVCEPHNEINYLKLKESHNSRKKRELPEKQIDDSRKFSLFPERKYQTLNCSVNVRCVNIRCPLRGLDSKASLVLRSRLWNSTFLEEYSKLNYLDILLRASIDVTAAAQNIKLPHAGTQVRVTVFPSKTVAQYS
Chain of recombinant murine integrin α6β4 (A2A863 29-712, chain 2 of 2): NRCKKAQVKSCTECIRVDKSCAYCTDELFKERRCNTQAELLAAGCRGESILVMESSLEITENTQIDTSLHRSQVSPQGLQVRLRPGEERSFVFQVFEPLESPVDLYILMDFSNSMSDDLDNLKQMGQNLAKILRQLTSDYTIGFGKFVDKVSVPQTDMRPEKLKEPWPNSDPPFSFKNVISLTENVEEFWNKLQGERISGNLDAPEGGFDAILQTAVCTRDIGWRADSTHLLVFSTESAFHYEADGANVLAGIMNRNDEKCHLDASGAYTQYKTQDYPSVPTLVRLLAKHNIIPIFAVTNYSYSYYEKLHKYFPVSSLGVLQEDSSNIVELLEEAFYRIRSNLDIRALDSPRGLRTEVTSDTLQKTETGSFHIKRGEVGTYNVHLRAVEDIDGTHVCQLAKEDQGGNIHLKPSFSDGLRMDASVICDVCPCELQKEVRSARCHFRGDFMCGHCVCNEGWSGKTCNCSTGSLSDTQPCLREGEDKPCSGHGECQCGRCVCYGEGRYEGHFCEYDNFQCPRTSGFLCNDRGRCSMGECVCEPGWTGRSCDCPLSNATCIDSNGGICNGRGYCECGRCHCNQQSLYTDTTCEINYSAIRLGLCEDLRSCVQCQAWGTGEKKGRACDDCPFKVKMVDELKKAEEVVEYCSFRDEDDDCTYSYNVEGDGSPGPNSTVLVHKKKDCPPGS

B1: IDA (nc28) (ssDNA)
DNA: GCCTGTTGTGAGCCTCCTAACCGTGCGTATTCGTACTGGAACTGATATCGATGTCCCCATGCTTATTCTTGTCTCCC
binds: all assays above
